In patent US20060172367:

Assays:
fructosyl valine-leucine = target: T1, fructosyl valine-leucine
T1 chain: VL

[1] = target: T2, fructosyl valine-histidine
T2 chain: VH

[2] = target: T3, fructosyl valine-histidine-leucine
T3 chain: VHL

[3] = target: T4, fructosyl valine-leucine-serine
T4 chain: VLS

Protein	Relative activity (%) (fructosyl valine-leucine)	Relative activity (%) [1] [%]	Relative activity (%) [2] [%]	Relative activity (%) [3] [%]
fructosylamine oxidase FAO-Q1 from Fusarium proliferatum GL2-1 strain (protein) MAGPPSSILIVGSGVFGLGTAWALAKRSHFSNTSITVVDDCAGQFPPEDAASVDSSRIVRADYSDPYYAALAAEAQKEWRKQGDHEVGGQGRYSESGFVLCASETPEDFKLKKSGMDYTKESAKNVELIAKETGLPVDKIQKLESTKALQEFLGTDGYPGDWGYLNGNSGWADAGEGMKWLYKQAQATGRIHFVNGKVTELVTEGDRVIGAKLSDSKILKADVVMVAAGAWSGSLVDLRGRTEATGHAVAYMDITPEEQKRLDNFPVVLNLSTGLFLIPPRNNVLKAARHTFGYINPVKINNALPPSPNDKREPFIASQPYTSRNDSSNPLTVEADKDLRRALTDLCPIRGLETRPWKEARICWYSDTRDGEWLIDYHPGWKGLFVATGDSGHGFKFLPNLGEKIVDVMQGQGGKLGEKWRWKEIQNDGVGRETNGVYTGLVTEDGSRGGRPLVLCDELEKGRALIGNTKAKL	1.1			
fructosylamine oxidase FAO-Q2 from Fusarium proliferatum GL2-1 strain (protein) MARTVAPLNKDSGILIVGGGTWGCSTALHLARRGYTNVTVLDVNRIPSPISAGHDVNKLSNRLGTSDSKGDDEDSIWKALTYAAAQGWLHDPIFQPFCHNTGAVMAGSTPKSIKQLVEDEIGDDIDQYTPLNTAEDFRRTMPERILTGDFLGWKGFYKPRGSGWVHARKAMKAAFEESQRLGVKFITGSPEGKVESLVFEAGDVKGAKTADGKEHRADRTILSAGASAEFSLDFENQIRPTAWTLGHIQMTAEETKLYKELPPLFNINQGFFMEPDEDLHQLKMCDEHPGYCNWVDKPGSKYPQSIPFAKYQVPIEAERRMKQFLKDIMPQLADRPLVHARICWCADTQDRMFLITYHPRHPSLVIASGDCGTGYKHITSIGKFISDCMEGTLEERFAKFWRWRPEKFTEFWGKDPLDRFGADDKIMDLPKSDAEGWTDIQNDK	0.6	2.4	0.6	3.3
